B1: GLP1-G8_I_VARfeIgG2: Formula I GLP1-G8 contiguous polypeptide comprising variant feline IgG2 Fc of SEQ ID NO: 17 (Gly to Cys at position 14) (protein)
chain: HGEGTFTSDVSSYLEGQAAKEFIAWLVKGGGGSGGGGSGGGGSGGGGSPKTASTIESKTGECPKCPVPEIPGAPSVFIFPPKPKDTLSISRTPEVTCLVVDLGPDDSNVQITWFVDNTEMHTAKTRPREEQFNSTYRVVSVLPILHQDWLKGKEFKCKVNSKSLPSAMERTISKAKGQPHEPQVYVLPPTQEELSENKVSVTCLIKGFHPPDIAVEWEITGQPEPENNYQTTPPQLDSDGTYFLYSRLSVDRSHWQRGNTYTCSVSHEALHSHHTQKSLTQSPGK
modifications: Synthetic GLP1-G8_I_VARfeIgG2

Columns and labels:
[1] = cited from earlier work
[2] = in vivo, sc, 2 mg/kg
GLP1R = target: T1, GLP1R (Homo sapiens, UniProt P43220); test: Long-term storage stability, CHOK-1-GL1R cells with cAMP-Glo Max Assay; assay type: cell-based; conditions: stored in PBS, pH7.2, 1.3 mg/mL, 2-8° C. for one year
T1 construct: host or cells: CHO-K1 (hamster ovarian cell line), CHOK-1-GL1R
T1 sequence (P43220 24-463): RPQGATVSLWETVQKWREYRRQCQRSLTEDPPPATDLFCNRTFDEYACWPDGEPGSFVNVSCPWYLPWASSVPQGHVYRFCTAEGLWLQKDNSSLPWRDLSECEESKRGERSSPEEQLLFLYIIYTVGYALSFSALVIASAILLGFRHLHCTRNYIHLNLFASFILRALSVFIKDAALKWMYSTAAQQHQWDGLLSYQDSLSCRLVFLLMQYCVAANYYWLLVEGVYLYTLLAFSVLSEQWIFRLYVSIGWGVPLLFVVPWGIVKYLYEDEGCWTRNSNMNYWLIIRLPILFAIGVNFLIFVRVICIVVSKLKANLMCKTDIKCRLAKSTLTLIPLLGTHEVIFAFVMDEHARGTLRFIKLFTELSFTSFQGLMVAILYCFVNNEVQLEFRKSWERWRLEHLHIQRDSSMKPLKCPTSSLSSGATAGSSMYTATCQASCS
Description: GLP1-G8_I_VARfeIgG2 (SEQ ID NO: 26) was stored in PBS, pH7.2 at a concentration of 1.3 mg/mL, placed in 1.5 mL Eppendorf tube, and stored at 2-8° C. for one year (Lot 2-29-2016). GLP1-G8_I_VARfeIgG2 (SEQ ID NO: 26) was also stored in PBS, pH7.2 at a concentration of 10 mg/mL, placed in 1.5 mL Eppendorf tube, and stored at 2-8° C. for one day (Lot 2-2-2017).
CHOK-1-GL1R cells were plated in a 96-well plate (Corning, Cat #3610) at a density of 20,000 cells per well in F-12K Medium (ATCC, Cat #ATCC® 30-2004) supplemented with 10% Fetal Bovine Serum, heat inactivated (Sigma, Cat #2868) and incubated at 37° C., 5% CO2 for 24 hours. […] (Sigma Aldrich, Cat. #B8279) to a final concentration 100 μL.
The cells were incubated at room temperature for 30 minutes. In this process, upon GLP1 binding to the Gs-coupled GLP1R receptor, Gs stimulates adenylate cyclase to generate cAMP. […]
Mono-oxygenation of luciferin was catalyzed by luciferase in the presence of Mg^2+ and ATP that presented in the cell lysate, resulting in a luminescent signal proportional to the amount of ATP in the cells. At the end of 10 min incubation, the plate was read on a Synergy HT microplate reader (Biotek, Winooski, VT). Luminescence is proportional to ATP levels but inversely proportional to cAMP levels. Thus, as cAMP concentration increases, luminescence decreases.

[3] = In vivo pharmacokinetics in cats, serum concentration by cell-based activity assay; conditions: single dose 2 mg/kg subcutaneous, 5 cats, 0 to 168 hours
[4] = assay type: in vitro ADME, feline; conditions: pH 7.2
Description: (§1) GLP1-G8_I_VARfeIgG2 (SEQ ID NO: 26) was stored in PBS, pH7.2 with feline serum at 37° C. for 24 hours to test in vitro serum stability.

[5] = in vivo, sc, 2 mg/kg; remark: listed apart in the source
Description: (§2) The plate was sealed and incubated overnight at 4° C. […] After removing the blocking buffer, serial dilutions of reference standard and samples in blocking buffer were added (100 μl/well) and the plate was incubated for 2 hours at room temperature. […] TMB substrate (ScyTek, Catalog No. TM1999) was added (100 μl/well) and allowed to incubate at room temperature for 1 minute. The reaction was stopped by the addition of 2M H2SO4 (50 μl/well).

[6] = assay type: in vitro ADME, feline
Description: (lane 1), in PBS for 24 hours at 37° C. (lane 2), in PBS for 24 hours at 4° C. (lane 9). A mouse anti-GLP1 antibody was used.
as §1

[7] = Differential scanning fluorimetry, stability at various pH; assay type: physicochemical; conditions: n = 3, 10 μg construct
Text: Furthermore, differential scanning fluorimetry was used to assess the stability of the contiguous polypeptides at various pH, as reflected by mean melting point temperature (n=3) (Table 9, below). The increased stability of the variant feline IgG2 hinge is most evident at pH 6.

[8] = In vivo pharmacokinetics in cats, serum concentration by quantitative ELISA; conditions: single dose 2 mg/kg subcutaneous, 5 cats
Description: as §2

Molecule	in vivo half-life [1]	mean t1/2 [2]	cellular activity after storage (GLP1R)	mean AUC [3]	activity after serum incubation [4]	mean serum half-life (t1/2) [5]	degradation by Western blot [6]	Mean Melting Point Temperature (Tm) ([7]; pH 5)	Mean Melting Point Temperature (Tm) ([7]; pH 6)	Mean Melting Point Temperature (Tm) ([7]; pH 7)	Mean Melting Point Temperature (Tm) ([7]; pH 8)	average Cmax [8]	average Tmax [8]	mean area under the curve (AUC) [8]
Native GLP1: Glucagon-like peptide-1 (GLP1), a potent antihyperglycemic hormone	approximately 2 minutes	–	–	–	–	–	–	–	–	–	–	–	–	–
B1	–	36 h	maintained cellular activity	about 840 μg(h)/mL	activity was maintained	39 h	no visible degradations were observed	53.1 °C	59.7 °C	59.9 °C	58.2 °C	12000 ng/mL	22 h	about 950 m(h)/mL
